According to US20190144535A1 (AGENCY FOR SCIENCE TECHNOLOGY AND RESEARCH, published 2019):

Assays:
human IL-1β [1] = biological target: T1, human IL-1β (human, UniProt P01584 117-269); test: cell-based or functional assay
mouse IL-1β [2] = biological target: T2, mouse IL-1β (mouse, UniProt P10749 118-269); test: cell-based or functional assay
human IL-1β [3] = biological target: T1, human IL-1β; test: cell-based or functional assay; remark: listed apart in the source
human IL-1β [4] = biological target: T1, human IL-1β; test: ProteOn bioanalyzer (BioRad)
Protocol: (§1) Matured clones (except P1E8) were tested for affinity towards mouse and human IL-1β using the ProteOn bioanalyzer (BioRad, Hercules, USA).

mouse IL-1β [5] = biological target: T2, mouse IL-1β; test: ProteOn bioanalyzer (BioRad)
Protocol: as §1

mouse IL-1β [6] = biological target: T2, mouse IL-1β; test: ProteOn bioanalyzer (BioRad); end of the range tied to P2D7 by Table 1
Protocol: as §1

mouse IL-1β [7] = biological target: T2, mouse IL-1β; test: direct ELISA, OD 460 nm against IgG 2H concentration
mouse IL-1β [8] = biological target: T2, mouse IL-1β; test: cell-based or functional assay; remark: listed apart in the source
mouse IL-1β [9] = biological target: T2, mouse IL-1β; test: ProteOn bioanalyzer (BioRad); end of the range tied to P1H8 by Table 1
Protocol: as §1

Binder | EC50, inhibition of mouse IL-1β-induced IL-6 secretion by MRC5 cells (mouse IL-1β [2]) [nM] | EC50, inhibition of human IL-1β-induced IL-6 secretion by MRC5 cells (human IL-1β [3]) [nM] | Kd (human IL-1β [4]) [nM] | Kd (mouse IL-1β [5]) [nM] | further results
Fab clone 2H (Fab, V domains shown) VH: QVQLQQWGAGLLKPSETLSLTCAVYGGSFSDYYWSWIRQPPGKGLEWIGEIDHSGSTNYNPSLKSRVTISVDTSRNQFSLSLSSVTAADTAVYYCARASPSSGWTLDYWGQGTLVTVSS VL: QSVLTQPPSVSVSPGQTASITCSGDKLGDKFAFWYQQKPGQSPVLVIYLDNKRPSGIPERFSGSNSGNTATLTISGTQALDEADYYCQAWDSNIEVFGGGTKLTVLG | – | – | – | – | IC50 (concentration inhibiting 50% of IL-1β activity), HEK-Blue IL-1β cells, SEAP reporter (human IL-1β [1]): 0.21 nM
P1E8 (antibody, V domains shown) VH: QVQLQQWGAGLLKPSETLSLTCAVYGGSFSDYYWSWIRQPPGKGLEWIGEIDHSGSTNYNPSLKSRVTISVDTSKNQFSLKLSSVTAADTAVYYCARASPSSGWTLDYWGQGTLVTVSS VL: QSVLTQPPSVSVSPGQTASITCSGDKLGDKFAFWYQQKPGQSPVLVIYLDNKRPSGIPERFSGSNSGNTATLTISGTQALDEADYYCEAWDAAAEVFGGGTKLTVLG | 0.479 | 0.0453 | – | – | –
P2D8 (antibody, V domains shown, also called matured Ig P2D8) VH: QVQLQQWGAGLLKPSETLSLTCAVYGGSFSDYYWSWIRQPPGKGLEWIGEIDHSGSTNYNPSLKSRVTISVDTSRNQFSLSLSSVTAADTAVYYCARASPSSGWTLDYWGQGTLVTVSS VL: QSVLTQPPSVSVSPGQTASITCSGDKLGDKFAFWYQQKPGQSPVLVIYLDNKRPSGIPERFSGSNSGNTATLTISGTQALDEADYYCEAWADTYEVFGGGTKLTVLG | 0.197 | 0.011 | 0.00457 | 0.0166 | –
P2D7 (antibody, V domains shown, claim 45 pairs 17 with 14); also called matured Ig P2D7) VH: QVQLQQWGAGLLKPSETLSLTCAVYGGSFSDYYWSWIRQPPGKGLEWIGEIDHSGSTNYNPSLKSRVTISVDTSRNQFSLSLSSVTAADTAVYYCARASPSSGWTLDYWGQGTLVTVSS VL: QSVLTQPPSVSVSPGQTASITCSGDKLGDKFAFWYQQKPGQSPVLVIYLDNKRPSGIPERFSGSNSGNTATLTISGTQALDEADYYCYAWADTYEVFGGGTK | 0.158 | 0.00653 | 0.0031 | 0.0109 | fold higher affinity compared to IgG 2H (mouse IL-1β [6]): 3 to 13 fold
IgG1 2H (antibody, V domains shown, also called IgG 2H; IgG clone 2H) VH: QVQLQQWGAGLLKPSETLSLTCAVYGGSFSDYYWSWIRQPPGKGLEWIGEIDHSGSTNYNPSLKSRVTISVDTSRNQFSLSLSSVTAADTAVYYCARASPSSGWTLDYWGQGTLVTVSS VL: QSVLTQPPSVSVSPGQTASITCSGDKLGDKFAFWYQQKPGQSPVLVIYLDNKRPSGIPERFSGSNSGNTATLTISGTQALDEADYYCQAWDSNIEVFGGGTKLTVLG | 1.25 | 0.148 | 0.0783 | 0.142 | EC50 (read off the curve) (mouse IL-1β [7]): ~0.3 nM; inhibition potency (EC50), human IL-1β induced IL-6 production in MRC5 cells (human IL-1β [1]): 0.35 nM; potency (EC50), neutralization in HEK-Blue cells stimulated with 4 pM human IL-1β (human IL-1β [1]): 0.17 nM; potency (EC50), neutralization in HEK-Blue cells stimulated with mouse IL-1β (mouse IL-1β [8]): 1.5 nM
P1H8 (antibody, V domains shown, also called matured Ig P1H8) VH: QVQLQQWGAGLLKPSETLSLTCAVYGGSFSDYYWSWIRQPPGKGLEWIGEIDHSGSTNYNPSLKSRVTISVDTSRNQFSLSLSSVTAADTAVYYCARASPSSGWTLDYWGQGTLVTVSS VL: QSVLTQPPSVSVSPGQTASITCSGDKLGDKFAFWYQQKPGQSPVLVIYLDNKRPSGIPERFSGSNSGNTATLTISGTQALDEADYYCQAWADSFEVFGGGTKLTVLG | 0.623 | 0.0215 | 0.0101 | 0.0489 | fold higher affinity compared to IgG 2H (mouse IL-1β [9]): 3 to 13 fold
P1D9 (antibody, V domains shown, also called matured Ig P1D9) VH: QVQLQQWGAGLLKPSETLSLTCAVYGGSFSDYYWSWIRQPPGKGLEWIGEIDHSGSTNYNPSLKSRVTISVDTSRNQFSLSLSSVTAADTAVYYCARASPSSGWTLDYWGQGTLVTVSS VL: QSVLTQPPSVSVSPGQTASITCSGDKLGDKFAFWYQQKPGQSPVLVIYLDNKRPSGIPERFSGSNSGNTATLTISGTQALDEADYYCYAWDNAYEVFGGGTKLTVLG | 0.241 | 0.0207 | 0.00673 | 0.0236 | –
Fab clone 1H (Fab, V domains shown) VH: EVQLVQSGAEVKKPGASVKVSCKASGYTFTSYYMHWVRQAPGQGLEWMGLVDPEDGETIYAEKFQGRVTITADTSTDTAYMELSSLRSEDTAVYYCARVEWVAGTEGWGYYFDYWGQGTLVTVSS VL: NFMLTQPHSVSESPGKTVTIPCTASSGSIANNFVQWYQQRPGSAPTTVIYEDSQRPSGVPDRVSGSIDSSSNSASLTISGLKTEDEADYYCQSYDSANDRVTFGGGTKLIVLG | – | – | – | – | IC50 (concentration inhibiting 50% of IL-1β activity), HEK-Blue IL-1β cells, SEAP reporter (human IL-1β [1]): 1.31 nM
IgG1 1H (antibody, V domains shown) VH: EVQLVQSGAEVKKPGASVKVSCKASGYTFTSYYMHWVRQAPGQGLEWMGLVDPEDGETIYAEKFQGRVTITADTSTDTAYMELSSLRSEDTAVYYCARVEWVAGTEGWGYYFDYWGQGTLVTVSS VL: NFMLTQPHSVSESPGKTVTIPCTASSGSIANNFVQWYQQRPGSAPTTVIYEDSQRPSGVPDRVSGSIDSSSNSASLTISGLKTEDEADYYCQSYDSANDRVTFGGGTKLIVLG | – | – | – | – | inhibition potency (EC50), human IL-1β induced IL-6 production in MRC5 cells (human IL-1β [1]): 3.92 nM; potency (EC50), neutralization in HEK-Blue cells stimulated with 4 pM human IL-1β (human IL-1β [1]): 2.6 nM; potency (EC50), neutralization in HEK-Blue cells stimulated with mouse IL-1β (mouse IL-1β [8]): 11.5 nM
